The experiment has as its target T1, porcine aminopeptidase N (pAPN) fused with a hFc tag (porcine, UniProt P15145).
T1 construct: also called porcine APN; source: HEK293T cell expression system, expressed and purified
T1 sequence: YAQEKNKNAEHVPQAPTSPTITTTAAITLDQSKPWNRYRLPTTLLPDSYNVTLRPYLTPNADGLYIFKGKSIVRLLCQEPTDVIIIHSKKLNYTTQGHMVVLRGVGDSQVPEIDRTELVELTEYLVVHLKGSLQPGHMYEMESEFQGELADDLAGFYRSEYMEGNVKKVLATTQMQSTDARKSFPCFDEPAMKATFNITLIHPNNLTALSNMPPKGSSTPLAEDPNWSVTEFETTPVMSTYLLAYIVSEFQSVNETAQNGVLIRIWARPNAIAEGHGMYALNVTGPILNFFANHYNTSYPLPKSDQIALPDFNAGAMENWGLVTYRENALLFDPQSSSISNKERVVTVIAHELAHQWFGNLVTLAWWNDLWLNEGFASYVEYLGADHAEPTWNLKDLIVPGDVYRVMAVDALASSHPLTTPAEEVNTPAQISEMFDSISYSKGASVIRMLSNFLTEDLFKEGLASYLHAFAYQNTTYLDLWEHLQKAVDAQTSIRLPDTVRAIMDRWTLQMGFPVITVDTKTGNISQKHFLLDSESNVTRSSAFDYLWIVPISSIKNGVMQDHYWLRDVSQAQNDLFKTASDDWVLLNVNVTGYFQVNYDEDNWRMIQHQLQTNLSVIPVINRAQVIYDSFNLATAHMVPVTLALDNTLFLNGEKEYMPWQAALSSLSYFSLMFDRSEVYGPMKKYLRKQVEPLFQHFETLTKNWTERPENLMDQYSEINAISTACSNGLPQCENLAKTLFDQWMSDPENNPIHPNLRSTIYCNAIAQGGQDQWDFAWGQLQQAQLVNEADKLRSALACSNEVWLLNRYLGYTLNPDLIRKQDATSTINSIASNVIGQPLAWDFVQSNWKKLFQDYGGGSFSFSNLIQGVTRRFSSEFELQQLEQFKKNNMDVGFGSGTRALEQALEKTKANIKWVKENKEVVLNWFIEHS
The experiment in a line: SPR; […]; Biacore 8K, room temperature. As to conditions: both partners purified. A general note: In SPR one partner is held on a chip, and binding of the other changes the refractive index at the surface.

B1: PEDV S1 protein with a C-terminal His tag (domain or fragment)
chain: CQSTTNFRRFFSKFNVQAPAVVVLGGYLPSMNSSSWYCGTGIETASGVHGIFLSYIDSGQGFEIGISQEPFDPSGYQLYLHKATNGNTNAIARLRICQFPDNKTLGPTVNDVTTGRNCLFNKAIPAYMRDGKDIVVGITWDNDRVTVFADKIYHFYLKNDWSRVATRCYNRRSCAMQYVYTPTYYMLNVTSAGEDGIYYEPCTANCTGYAANVFATDSNGHIPEGFSFNNWFLLSNDSTLLHGKVVSNQPLLVNCLLAIPKIYGLGQFFSFNHTMDGVCNGAAVDRAPEALRFNINDTSVILAEGSIVLHTALGTNLSFVCSNSSDPHLAIFAIPLGATEVPYYCFLKVDTYNSTVYKFLAVLPPTVREIVITKYGDVYVNGFGYLHLGLLDAVTINFTGHGTDDDVSGFWTIASTNFVDALIEVQGTSIQRILYCDDPVSQLKCSQVAFDLDDGFYPISSRNLLSHEQPISFVTLPSFNDHSFVNITVSAAFGGLSSANLVASDTTINGFSSFCVDTRQFTITLFYNVTNSYGYVSKSQDSNCPFTLQSVNDYLSFSKFCVSTSLLAGACTIDLFGYPAFGSGVKLTSLYFQFTKGELITGTPKPLEGITDVSFMTLDVCTKYTIYGFKGEGIITLTNSSILAGVYYTSDSGQLLAFKNVTSGAVYSVTPCSFSEQAAYVNDDIVGVISSLSNSTFNNTRELPGFFYH
For orientation: Kd means the equilibrium constant for the complex coming apart. Read a low Kd as tighter binding. B1 showed a dissociation constant (Kd) of 47.5 µM. That is a double-digit micromolar value.

B2: TGEV S1 protein with a C-terminal His tag (domain or fragment)
chain: IGNHWNLIETFLLNYSSRLPPNSDAVLGDYFPTVQPWFNCIRNNSNDLYVTLENLKALYWDYAIENITSNHKQRLNVVVNGYPYSITVTTTRNFNSAEGAIICICKGSPPTTTTESSLTCNWGSECRLNHKFPICPSNSEANCGNMLYGLQWFADAVVAYLHGASYRISFENQWSGTVTLGDMRATTLETAGTLVDLWWFNPVYDVSYYRVNNKNGTTVVSNCTDQCASYVANVFTTQPGGFIPSDFSFNNWFLLTNSSTLVSGKLVTKQPLLVNCLWPVPSFEEAASTFCFEGAGFDQCNGAVLNNTVDVIRFNLNFTTNVQSGKGATVFSLNTTGGVTLEISCYNDTVSDSSFSSYGEMPFGVTDGPRYCYVLYNGTALKYLGTLPPVVKEIAISKWGHFYINGYNFFSTFPIDCISFNLTTGDSDVFWTIAYTSYTEALVQVENTAITKVTYCNSYVNNIKCSQLTANLNNGFYPVSSSEVGLVNKSVVLLPSFYTHTIVNITIGLGMKRSGYGQPIASTLSNITLPMQDDNTDVYCIRSDQFSVYVHSTCKSALWDNVFKRNCTDVLDATAVIKTGTCPFSFAKLNNYLTFNKFCLSLSPVGANCKFDVAARTRTNDQVVRSLYVIYEEGDNIVGVPSDNSGLHDLSVLHLDSCTDYNIYGRTGVGIIRQTNRTLLSGLYYTSLSGDLLGFKNVSDGVIYSVTPCDVIAQAAVIDGTIVGAITSINSELLGLTHWTTTPNFYYY
B2 returned a Kd of 0.392 µM.

The values above are taken from article PMC12233901, “Resolving the APN controversy in PEDV infection: Comparative kinetic characterization through single-virus tracking” (PLOS Pathogens, 2025).
